This note sets out measurements from patent US20230374090A1 (SURROZEN OPERATING, published 2023).

One test concerns the target T1, human ASGR1 (human, UniProt P07306 62-291, limits assumed).
T1 construct: also called asialoglycoprotein receptor 1; hASGR1
T1 sequence (looked up): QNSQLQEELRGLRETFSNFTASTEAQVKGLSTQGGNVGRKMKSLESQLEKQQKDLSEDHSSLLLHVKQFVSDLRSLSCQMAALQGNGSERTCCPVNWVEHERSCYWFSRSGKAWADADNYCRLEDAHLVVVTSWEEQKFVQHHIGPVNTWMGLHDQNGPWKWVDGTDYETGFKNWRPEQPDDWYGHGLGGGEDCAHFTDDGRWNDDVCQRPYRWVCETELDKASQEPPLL
Put plainly: kinetic binding to human ASGR1, IgG1 format; method and unit inferred.

The target in test [1] is T2, HuASGR1-CBD_P07306_154-291 (human).
T2 construct: also called human ASGR1-CBD
T2 chain: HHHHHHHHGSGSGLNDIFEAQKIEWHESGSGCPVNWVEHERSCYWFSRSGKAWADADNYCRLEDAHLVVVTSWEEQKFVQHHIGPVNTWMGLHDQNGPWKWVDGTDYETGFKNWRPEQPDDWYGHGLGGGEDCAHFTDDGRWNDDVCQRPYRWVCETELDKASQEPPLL
As to the kind of experiment: size-exclusion chromatography of the mixed proteins (1.1:1 molar ratio). As for the experimental part:
Purified […] and 8M24 Fab were mixed at 1.1:1 molar ratio (little excess of the HuASGR1-CBD), and incubated with carboxy-peptidase A and B at a w/w ratio of 100:1 for over-night at 4° C. Complex formation was confirmed by observation of a single-major peak on SuperdexS200 Increase (10/300 GL) column pre-equilibrated in HBS. Fractions containing complexes were further checked by SDS-PAGE and concentrated to ˜20 mg/mL for crystallization screens. […] 96-well plate crystal screening experiments were periodically monitored manually via a DiscoveryV20 stereomicroscope (Zeiss USA), and crystals were frozen for data collection by plunging into liquid nitrogen in the presence of various cryo-protectants (typically 15 to 30% v/v of glycerol or ethyleneglycol). […] Structure of HuASGR1-CBD:8M24 complex was determined by molecular replacement method using Phaser [Phaser crystallographic software. McCoy A J, Grosse-Kunstleve R W, Adams P D, Winn M D, Storoni L C, and Read R J. (2007) J Appl Crystallogr 40, 658-674] with poly-alanine model of published structure of ASGR1-CBD [PDB code: SJPV; Efficient Liver Targeting by Polyvalent Display of a Compact Ligand for the Asialoglycoprotein Receptor. […]

B1: 8M24 humanized L1H1 (antibody, V domains shown)
VH: EVQLVQSGAEVKKPGSSVKVSCKASGYTFTNYGINWVRQAPGQGLEWMGEIFPRSDNTFYAQKFQGRVTITADKSTSTAYMELSSLRSEDTAVYYCARKGRDYGTSHYFDYWGQGTTVTVSS
VL: DIQMTQSPSSLSASVGDRVTITCRISENIYSNLAWYQQKPGKAPKLLIYAAINLADGVPSRFSGSGSGTDFTLTISSLQPEDFATYYCQHFWGTPFTFGQGTKLEIK
notes: also called 8M24 humanized 1
As usually defined, the Kd is the free concentration of one partner at which half of the binding sites on the other are occupied at equilibrium, for simple one-to-one binding. High values mean lower affinity, low ones higher affinity. Consider B1, for which binding with human ASGR1 was characterised by a dissociation constant (Kd) of 5.73 pM.

B2: 8M24 Fab (L1H1 version) (Fab, V domains shown)
VH: EVQLVQSGAEVKKPGSSVKVSCKASGYTFTNYGINWVRQAPGQGLEWMGEIFPRSDNTFYAQKFQGRVTITADKSTSTAYMELSSLRSEDTAVYYCARKGRDYGTSHYFDYWGQGTTVTVSS
VL: DIQMTQSPSSLSASVGDRVTITCRISENIYSNLAWYQQKPGKAPKLLIYAAINLADGVPSRFSGSGSGTDFTLTISSLQPEDFATYYCQHFWGTPFTFGQGTKLEIKR
notes: Heavy chain entry includes a C-terminal hexa-histidine tag; also called 8M24L1 Light-chain + 8M24H1 Heavy-chain; SZP19057+19056
As to B2, in test [1], the binding result is recorded as “binds”.

B3: 8M24 humanized L2H2 (antibody, V domains shown)
VH: EVQLVQSGAEVKKPGSSVKVSCKASGYTFTNYGINWVRQAPGQGLEWIGEIFPRSDNTFYAQKFQGRATLTADKSTSTAYMELSSLRSEDTAVYYCARKGRDYGTSHYFDYWGQGTTLTVSS
VL: DIQMTQSPSSLSASVGDRVTITCRISENIYSNLAWYQQKPGKAPKLLVYAAINLADGVPSRFSGSGSGTDFTLTISSLQPEDFGTYYCQHFWGTPFTFGQGTKLEIK
notes: also called 8M24 humanized 2
For the molecule B3, the Kd in the test with human ASGR1 turned out to be 110 pM.
